Source: the DeepSol protein solubility set

Experiment: soluble on expression in E. coli; label from the status in PepcDB or PDB records

Sequence	soluble on expression in E. coli
MTSIHSPVTRKEDTELKRPDLRGKFVCSSCSQNFQHSASLNRHRQLMHSNEHTCMMCERALNQKETIREHMRNEHNLAQVFTCGCCNWTFASKRQLTEHTKCIQGTGAPGDTIPIAKSINAPGSLIQSTIQGTPPVVKTGRKRPMGGSLSPSSSVSTSISSRDASGSPPPTEEEAERKVLFDNAVDTILQSKFFTYQQITEVDTWVKIIESANTLADTLQRIKKSQKVKAEGPAVESKMIPEKHVKQEIE	not soluble
MTSITAIFFDLDGTLVDSSIGIHNAFTYTFKELGVPSPDAKTIRGFMGPPLESSFATCLSKDQISEAVQIYRSYYKAKGIYEAQLFPQIIDLLEELSSSYPLYITTTKDTSTAQDMAKNLEIHHFFDGIYGSSPEAPHKADVIHQALQTHQLAPEQAIIIGDTKFDMLGARETGIQKLAITWGFGEQADLLNYQPDYIAHKPLEVLAYFQ	soluble
MTSKQSVSQCVKPPRPPAWIMQPPPDWQTPLNGIISPSERGLEHHHHHH	not soluble
MTSRGITSLSNHLIPLSFPARLRIDQADKQAQAGLMKDHAQHTANIGKFQDSFVTADGQARASVPLSRPETLWFNTGTLCNIECANCYILSSPKNDALVYLSADEVSAYLDQIAARGWPVHEIGFTGGEPFMNPQIIAMSRTALERGFEVLILTNAMRPMMRKTMRLGVAALVRDFGDRLTLRVSVDHHSAACHDAERGAGSFARTLAGMVWLRDCGARMTVAGRTVWGESEAEARAGYAALYAEYGFAIDAFDPGQTVLFPEMDERVEVPEITTACWDILGKSPETVMCASSRMVVKRKGAAHPVVLACTLLPYAPEFELGQTLAEAERPVQLNHPHCAKFCVLGGASCSA	not soluble
MTSSPARNGDISFWYADIGGVPQPRPPLAGDARADVCIVGAGYTGLWTALYLKEQAPELEVLVLEKEFAGFGASGRNGGWLTGSFAWTHDRYLSTGTAEGVRAMVTAMSGTVDEVIRVAEAEGIDADIHRTDELMVAVTPAQRARAEAEVRHRQSWGEERVSFLEADAVARRIRIPKAEGAMVVGGVARVQPAKLVRGLAEAAERRGVRIAEGTEVLGIAPGRVETRRGTVQAPIILRATEGFTATLPGAKRDWLPLNSAQIVTEPLPPEIWDRIGWEGAEILGDMANAYCYCQRTREGRIAVGARGRAYRMASRIDERGEADAVTVAHLLKRLQRHFPAAADARIDHSWCGVLGVPRDWCATVGLDPTTGIGWAGGYVGVGVSTSNLAGRTLADLALKRDTALTRLPWVNRRVRRWEPEPLRWLGVRGMYRLLEAADRREEAGGPPSWLAALGHRIAGRLEHHHHHH	not soluble
MTSTTPLEPERWTPHATVATIVEKDGKFLLVEEKRLINSQGDFGIVYNQPAGHVDEGESIMAAAIRETLEETRWQVKLKHLVGIYIFTAPANNVTYHRYCFAAEATVHQAESQLDDGILDAKWLSWEEIQQLDNLRSPLVKRCIKDHIDGKHYPLDVIYEYADHEHTDDENKSQELEDRND	soluble
MTSWADIQKLASDLQRVQLSQSSKKLSEVNCIEVLQKLIASHRIDVVYTRDGHSYVTKNHLETEIKNECIAAGGRASLTDIAVALNIDFDHIEKTSRLIVSTDDEFTISNAEIFATEYVHRLRNELRTLLDEQGNQTTAALCKHWNLSSELLQSLLIEKLGSSDFQGVVDGDTIYTSSFLNARQLVLRAILIALTKITPISTIQKRVGLTPKRFWIAFENLQSLGEIPGTLIGSRTSPSCSYRPMMYDHLVKSCVLNQYRQNEFLEISTLKTLGVDAKPALEEVLGSSEFKKLVSMRSMFMTKELMDQCINAVQEDLQKSGISDVHLALQSLNLPLDTADEDEIGSKVANVEKDSHFAEGFVFKGAVLTEALRSIDKLLDVRAHEEVDRLEAEKKKQGGAKAAVKVQEETDDWGDGKKGGKGGKKNAKSVKGGSKSSAPSTSSNLSANISINSEELEIWLRESQSVPEEILSVIVEKLNQETTTLLRKKVQDIQAHQLVASVANSKKSLSAIGDKCRQLYDSFNTFETATSTFADPLGSDLRQYLLKTVGNEIALALLSYVMGVDNAHQLKEKQREETIENLPEMLRDPIRSVFASLKSTDDDALDKFHDAVYNCSAPSATSLALKKVDKKGRAEVGAKITAELHEQLCSQTEPATTLLLSVLYILAKAGRPTTASGKFVSQLVAQIKDLCPENVFDLLQACQKGVVTCIKNKGDEVAKEMLVNDISSLKQSIMP	not soluble
MTTAITPDKKKLVSPKPTKTTSDKSKTKPRRSSKTSKKRKSKKGLFGCCAKKRKTKRSKKSAKRTKRSAPKKAPKKAPMKAPSKPAAKLVPQQAQASLQKPIQSGIVDADATVKTVVPRPPTPIPPTGVKPEPAPRSEPLYQPRSVSSTTPRTSATTGTTEQMVTAPATLPPPSAESKHLPQDPPGDASSPRVQRQYTAEKYSKEDQDDDDQKDLRKSVAYPSHKFFMTQYVKDECRVRRWVYEDSVPLMMESNMKHMLRMASNRIAACQSDKARRCDMMKDLNEMTEILDGNF	not soluble
MTTARWVIDKHLQNFHILCKFAGILKTNSFISVEDKAKLSEKLEKLDLYHRRNTGKSLDATTHKIKELSFYMFGYRDVCGQVTQKFLFSPLGNLFLKHLDNNEYIQKIFLTMLWAIPFPHPYIKTDESIQLYPMRLIFKLLSDERLDCKLFSYEYIYLISFVKSADQNSYEKLVQDILVLRTCAEVKIKHQLTAENSRSHAYVNAAHEWESYFSKTLTDAGVLQKTDGKIICRLKHGKTETYRKVTSSEFSIPKQLQEFVKKLQSAYSFSEMPLNLNDSDRLKIDVIKEIYSFYPKELLEEIGELKDEAAYELLHLPRLIEQYADNNNGTEAYLFEDVLEMGFNMFYNVEAKKIGGPGNTDLECLYITQKRKFAVEAKSTKNKLSGINSGRLEDHKNKIKAIYTIVVTPRYVPAVLSDIRNCPIVIIRANTFAEFLYNCLINRSSIPEIDYRYFDEIIIKNLGKDISSEISNLTMQQFASNTTMEAYST	not soluble
MTTDLITVKQVTKTYGSKNKEIAALKDISLAIPKGTTLGIIGESGSGKTTLGKLIAGIESPTSGEIDYNGQVVHKLKAAHKRDFLQKVQFIFQDSTAALNPRWKVRDSVTEGYISFGLGDKGLKDKVAGDALERVGLDRRYINRYPHEFSGGQRQRIAIARALLCEPEVLILDEPISALDVSLQIQIVHLLQKIQREQGYTYLFIAHDLPMVHYLCEKVAVLYKGELVEFGNTDEVFRNPQHSYTKTLLASTPKISG	not soluble
MTTFIQLHLLTAYPAANLNRDDTGAPKTVVLGGATRLRISSQSLKRAWRTSELFEQALAGHIGIRTGRIAREAAQILVDSGIDAKKAVEYVKNIANCFGKVKEDKKPKDELTNAETEQLVHISPAEFEAVKALARRLAEEKRPATEEEAELLRHDRMAVDIAMFGRMLAKKTDFNVEAACQVAHAFGVSETIIEDDFFTAVDDLRQASAEDAGAGHLGETGFGSALFYTYICIDKDLLVKNLNDNEELANKTLRAFTEAALKVSPTGKQNSFASRAYASWALAEKGTDQPRSLAAAFYEPINGTDQLNVAVKRITSLHKNMNKVYGQRTDTASFDVMNQQGSMEDVLDFICA	not soluble
MTTFPILRLPEKSLKIAIRCLTMEQIIKFSLISESTKRTAESLNLQADPFWICFGESVHISVHANFVENYQQDIPWNPVEVDLRTLLDHFQSVLHTNKFEYFFV	not soluble
MTTGVRRRMGVEERRQQLIGVALDLFSRRSPDEVSIDEIASAAGISRPLVYHYFPGKLSLYEAALQRASDDLADRFVEPRQGPLGARLLRVMGRYFDFVDEHGPGFSALMRGGPAVGSTTTNALVDSVRQAAYVQILSHLDVTEPPARLELVVRSWISLAESTALLWLDGRRIPRAELETQLVHDFAALMAVSAAYDEEMGALVRRVLADEPEDGPFGDLVDRLLALSAR	soluble
MTTIKLIVNSVSKSERESIIAALHGQSIFNGGGLSPLNKISPSHPPKPATVAVPEETEKKARDVNEKTALLKKKSATELGELATSINTIARDAHMEANLEMEIVPQGLRVLIKDDQNRNMFERGSAQIMPFFKTLLVELAPVFDSLDNKIIITGHTDAMAYKNNIYNNWNLSGDRALSARRVLEEAGMPEDKVMQVSAMADQMLLDAKNPQSAGNRRIEIMVLTKSASDTLYQYFGQHGDKVVQPLVQKLDKQQVLSQRTR	not soluble
MTTKHSRTPGRPRQFDPEQAIETAQHLFHSRGYDAVSVADLTKAFGINPPSFYAAFGSKLGLYTRVLKRYRMTDAIPLGALLRHDRPTAKCLIDVLMEAARRYAADPDATGCLVLEGAHCNDKPAREAACEFYIAAENLIRTYVAMRYPQEADRTTDFMGTLMAGLSAKARAGYGLERLQESVLLAGDVLERLLPD	not soluble
MTTMTIKNAMVLAAGLGTRMRPITDTIPKPLVKIAGKPMIDYALDALVEAGAETIVVNVHHHAEQMISHLGHRTDAEILISDERTQLMNSGGGLAKGLKLLKPGPVFVMNADLFWIGERLNAVSNLRKLAQFLDPARMDMALLCVDMDRTTGHNGKRDFNLAGEGKLTRYRDGDANPVVYAGAIAMDSRLLDDAPADAFNLNIYFDRAIEKDRLFGLSLDGHWITVGTPDAIDDAESIIRQFREKRFALEHHHHHH	not soluble
MTTNKPLISVIMPVYNGGFTIRQAVESVFCQNIPLELLVIDDGSTDQTSEVLSVYRNRPDFHYLKNPHNIGAAASRNRGVQEAHGQYVAFLDADDWWENGKLQIQLDTLHETGRVLCSTGRELMNYDGTPTGKYIPVKETVSYRDLLKHNSINCSSVLLLRDVAAEFPMEHDDSHEDYLTWLKILRKYGPAAGIDRPLLKYRMSKTSKSGDKKKSAIMTYKVYRYMGYSHMRCILYFISYAIHGFWKYR	not soluble
MTTPKTFVPELLSPAGSLKNMRYAFAYGADAVYAGQPRYSLRVRNNEFNHENLQIGINEAHALGKKFYVVCNIQPHNSKLKTFIRDLKPVIDMGPDALIMSDPGLIMMVREEFPHMPIHLSVQANAVNWATVKFWASQGVERVIVSRELSLEEIEEIREKCPNTEIEVFVHGALCMAYSGRCLLSGYINKRDPNQGTCTNACRWEYKVEAAKEDEAGQIVEQFDPNAAQAIEVQNERPDTTIGAGKPIDDVVLLSESHRPDEKMAAFEDEHGTYIMNSKDLRAVQHVERLTQMGVHSLKIEGRTKSFYYCARTAQVYRKAIDDAVAGKPFDDSLMTTLESLAHRGYTEGFLRRHTHDAYQNYDYGYSVSDTQQFVGEFTGKRRGAMAEVEVKNKFVLGDSLELMTPKGNVIFTLEAMENRKGEATDDAKGNGHFVYIPVPEELDLSYALLMRNLVQGQDTRNPTGK	not soluble
MTTQTIKFHMKPETFKQNAAISLQDKPLRKSLRTAMDMLMTKRKAVLTDEEELQSLRDLCEHVRQRSLSKLPALLEQLEENLTKLGVKVHWAETPTEACQIIHDIITAKNGKLMVKGKSMVSEEIELNHYLEAKGIKAVESDLGEFIVQMAGEKPTHIVMPAIHKTKEQVSELFHQNLGTPLTDDVDQLTGFARKALRDIYSTADVGLSGVNFAVAETGTLCLVENEGNGRLSTTVPPVHIAITGIEKVVAKLSDIPPLYSLLPRSAIGQNITTYFNMITGPRRSEELDGPQEMHLVLLDNGRSQAYAEDQMRRTLQCIRCGACMNHCPVYTRIGGAAYGTTYPGPIGEIISPHLLGLDATRDLPTACTMCGACVEVCPVRIPITEQMQRLRVEAQRSPTETVPHPIRGQGASHTFGEQMAWRTFNGIFSGSKTYRAFGWAATKFRNLTPRKQLGWTQNRVPMKPAKKTLHELMAEKMRQKEQA	not soluble
